# US20180172683A1, “METHODS FOR ANALYZING THE INTERACTION BETWEEN A TARGET PROTEIN AND A LIGAND” (UNIVERSITY OF SOUTHERN CALIFORNIA, priority 2015, published 2018)
# Ends that are not written are not given here.
# B1: D1, mRNA-peptide fusion in the selection pool (HTSK) (peptide, not shown: a dimerising Fc or GST)
# peptide: MIAISTIYNYKKAADHYAMTK
# modifications: not fully specified; also: C-terminus joined via puromycin to DNA linker and reverse-transcribed mRNA
# B2: E1, mRNA-peptide fusion in the selection pool (HTSK) (peptide, not shown: a dimerising Fc or GST)
# peptide: MIETITIYNYKKAADHFSMSM
# modifications: not fully specified; also: C-terminus joined via puromycin to DNA linker and reverse-transcribed mRNA
# B3: D79, mRNA-peptide fusion in the doped selection pool (HTSK) (peptide, not shown: a dimerising Fc or GST)
# peptide: MIDTNVILNYKKAADHFSITM
# modifications: not fully specified; also: C-terminus joined via puromycin to DNA linker and reverse-transcribed mRNA
# Biological target: B-cell lymphoma extra-large protein (Bcl-xL), first 209 amino acids with N-terminal avitag (UniProt Q07817)
# Sequence (Q07817 other isoform, or with tags, fused parts or gaps): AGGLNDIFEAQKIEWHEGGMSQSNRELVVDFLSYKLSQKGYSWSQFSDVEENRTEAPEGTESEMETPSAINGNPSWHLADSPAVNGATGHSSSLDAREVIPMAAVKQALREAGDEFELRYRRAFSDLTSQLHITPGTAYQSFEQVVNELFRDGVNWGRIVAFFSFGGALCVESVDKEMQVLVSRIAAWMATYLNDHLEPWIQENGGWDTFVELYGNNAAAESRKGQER
# Assay: HTSK: from on- and off-rates of the mRNA-peptide fusion
row,Kd [nM],Binder
1,0.015,B1
2,0.023,B2
3,0.0024,B3

# Biological target: B-cell lymphoma extra-large protein (Bcl-xL), first 209 amino acids with N-terminal avitag (UniProt Q07817)
# Assay: HTSK: mRNA-peptide fusion pool on Bcl-xL beads, next-generation sequencing
row,koff [s⁻¹],Binder
1,1e-06,B1
2,2.5e-06,B2
3,3.3e-07,B3
